Source: publication PMC3401526

Key:
[1] = molecular target: Cav3.2 T-type calcium channel α 1H subunit (UniProt O95180)
[2] = molecular target: Cav3.2 T-type calcium channel α 1H subunit (UniProt O95180); remark: listed apart in the source

Sequence of UniProt O95180 (O95180 whole entry): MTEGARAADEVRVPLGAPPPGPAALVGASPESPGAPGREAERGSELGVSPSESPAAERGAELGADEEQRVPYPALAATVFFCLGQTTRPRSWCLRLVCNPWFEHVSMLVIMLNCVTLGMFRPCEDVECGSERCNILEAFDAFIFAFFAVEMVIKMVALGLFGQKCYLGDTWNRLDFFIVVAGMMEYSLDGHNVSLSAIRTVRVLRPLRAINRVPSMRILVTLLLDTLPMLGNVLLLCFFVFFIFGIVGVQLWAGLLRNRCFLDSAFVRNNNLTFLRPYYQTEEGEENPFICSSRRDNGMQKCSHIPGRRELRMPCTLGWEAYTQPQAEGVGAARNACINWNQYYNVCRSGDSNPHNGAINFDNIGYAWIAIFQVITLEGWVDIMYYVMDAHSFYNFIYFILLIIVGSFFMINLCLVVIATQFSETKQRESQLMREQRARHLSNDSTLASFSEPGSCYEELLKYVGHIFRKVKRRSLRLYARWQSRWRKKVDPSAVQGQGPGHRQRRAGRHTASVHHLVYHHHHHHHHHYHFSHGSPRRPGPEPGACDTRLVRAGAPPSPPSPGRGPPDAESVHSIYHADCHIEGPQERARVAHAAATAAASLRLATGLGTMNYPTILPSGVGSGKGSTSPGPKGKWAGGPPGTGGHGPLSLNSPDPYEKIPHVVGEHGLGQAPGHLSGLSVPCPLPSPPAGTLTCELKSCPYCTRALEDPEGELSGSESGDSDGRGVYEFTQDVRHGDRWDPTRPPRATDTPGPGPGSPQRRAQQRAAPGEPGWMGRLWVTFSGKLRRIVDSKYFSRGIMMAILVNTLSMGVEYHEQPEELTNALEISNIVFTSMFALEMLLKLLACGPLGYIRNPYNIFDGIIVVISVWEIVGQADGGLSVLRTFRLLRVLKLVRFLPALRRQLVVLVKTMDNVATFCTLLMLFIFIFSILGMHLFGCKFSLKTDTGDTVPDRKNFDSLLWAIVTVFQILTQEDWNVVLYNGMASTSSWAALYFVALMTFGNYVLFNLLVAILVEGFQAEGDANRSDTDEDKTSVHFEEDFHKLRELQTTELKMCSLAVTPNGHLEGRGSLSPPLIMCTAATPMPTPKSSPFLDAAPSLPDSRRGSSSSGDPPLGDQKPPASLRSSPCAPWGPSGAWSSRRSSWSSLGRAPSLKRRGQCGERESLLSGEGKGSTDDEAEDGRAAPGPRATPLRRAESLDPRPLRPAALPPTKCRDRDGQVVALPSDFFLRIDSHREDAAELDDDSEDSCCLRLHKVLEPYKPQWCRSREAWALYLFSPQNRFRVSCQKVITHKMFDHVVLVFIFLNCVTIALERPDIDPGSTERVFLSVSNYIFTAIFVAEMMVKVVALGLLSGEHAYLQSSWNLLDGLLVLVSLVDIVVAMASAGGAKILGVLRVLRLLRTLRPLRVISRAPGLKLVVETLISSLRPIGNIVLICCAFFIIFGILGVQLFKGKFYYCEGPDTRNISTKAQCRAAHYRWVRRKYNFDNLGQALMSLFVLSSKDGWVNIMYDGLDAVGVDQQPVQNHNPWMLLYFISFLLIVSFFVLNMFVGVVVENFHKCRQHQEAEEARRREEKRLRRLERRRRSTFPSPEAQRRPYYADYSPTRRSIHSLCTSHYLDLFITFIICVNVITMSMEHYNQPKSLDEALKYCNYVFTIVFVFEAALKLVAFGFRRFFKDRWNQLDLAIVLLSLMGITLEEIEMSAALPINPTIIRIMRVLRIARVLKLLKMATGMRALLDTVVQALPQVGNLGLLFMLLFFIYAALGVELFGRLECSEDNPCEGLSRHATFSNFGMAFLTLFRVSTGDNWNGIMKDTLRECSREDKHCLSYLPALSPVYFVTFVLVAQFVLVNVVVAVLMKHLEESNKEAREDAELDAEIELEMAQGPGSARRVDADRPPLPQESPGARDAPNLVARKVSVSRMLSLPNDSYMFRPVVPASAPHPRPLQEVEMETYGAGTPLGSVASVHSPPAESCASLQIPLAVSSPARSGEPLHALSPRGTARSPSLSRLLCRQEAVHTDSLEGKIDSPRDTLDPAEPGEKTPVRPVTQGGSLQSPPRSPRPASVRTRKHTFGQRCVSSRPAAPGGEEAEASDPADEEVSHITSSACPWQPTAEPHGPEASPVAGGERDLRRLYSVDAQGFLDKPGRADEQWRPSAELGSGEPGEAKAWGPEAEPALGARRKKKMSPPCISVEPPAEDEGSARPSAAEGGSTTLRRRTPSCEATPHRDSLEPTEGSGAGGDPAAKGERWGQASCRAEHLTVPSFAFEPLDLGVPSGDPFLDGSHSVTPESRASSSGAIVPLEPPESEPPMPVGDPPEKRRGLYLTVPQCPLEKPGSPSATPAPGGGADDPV

ΔKelch, truncated KLHL1 mutant lacking the Kelch domains (domain or fragment)
percentage of increase in calcium influx through Cav3.2 with respect to control, SQAP with shorter depolarization (0.5 ms at +50 mV); not a rescue of the ΔKelch effect [1]: 38 % increase | percentage of increase in calcium influx through Cav3.2 with respect to control, SQAP with shorter hyperpolarization (6 ms at -90 mV); not a rescue of the ΔKelch effect [1]: 31 % increase | percentage of increase in calcium influx through Cav3.2 with respect to control, square action potential (SQAP), first stimulus [2]: 25 % increase
